Residue numbers refer to the chain shown, from its start. Names may count otherwise. Read-outs that look alike come from different tables or passages of the source. Each block holds one binder with its values, some of them ahead of it.
Columns and labels:
[1] = target: T1, Full-length Human 4-1BB (human, UniProt Q07011 24-255); assay: flow cytometry, Jurkat cells expressing human 4-1BB
T1 construct: also called FOB005; CD137
Procedure: (§1) FIGS. 12A-12D show the binding of anti-4-1BB x anti-OX40 constructs, with additional humanization in 4-1BB and altered orientations of binding domains, human (12A) or cynomolgus (12C) 4-1BB-expressing Jurkat cells or human (12B) or cynomolgus (12D) OX40-expressing CHOK1SV cells. Serial dilutions of ADAPTIR™ constructs were incubated with transfected cells and subsequently labelled with a fluorescently-conjugated goat-a-human Fc secondary antibody. […] (See Example 19.)
(§2) Binding studies were performed using the flow cytometry-based staining procedures described above.

[2] = target: T2, Full-length Cyno OX40 (cynomolgus monkey, UniProt P43489 29-277 (human entry)); assay: flow cytometry on CHOK1SV cells transfected with cynomolgus OX40, goat anti-human Fc secondary antibody, MFI (Mean)
T2 construct: on CHO-K1SV cells; also called OXF004; cynomolgus OX40
T2 chain: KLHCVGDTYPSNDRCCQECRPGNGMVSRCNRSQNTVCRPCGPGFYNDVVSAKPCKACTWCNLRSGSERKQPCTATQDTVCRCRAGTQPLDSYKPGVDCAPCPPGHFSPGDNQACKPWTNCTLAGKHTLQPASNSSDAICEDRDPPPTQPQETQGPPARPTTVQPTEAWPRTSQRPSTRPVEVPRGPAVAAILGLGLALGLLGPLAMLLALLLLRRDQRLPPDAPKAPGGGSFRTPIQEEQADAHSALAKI
Procedure: as §1, §2

[3] = target: T3, Full-length Human OX40 (human, UniProt P43489 29-277); assay: flow cytometry, CHO cells expressing human OX40
T3 construct: also called OXF001; human OX40/CHO
T3 sequence: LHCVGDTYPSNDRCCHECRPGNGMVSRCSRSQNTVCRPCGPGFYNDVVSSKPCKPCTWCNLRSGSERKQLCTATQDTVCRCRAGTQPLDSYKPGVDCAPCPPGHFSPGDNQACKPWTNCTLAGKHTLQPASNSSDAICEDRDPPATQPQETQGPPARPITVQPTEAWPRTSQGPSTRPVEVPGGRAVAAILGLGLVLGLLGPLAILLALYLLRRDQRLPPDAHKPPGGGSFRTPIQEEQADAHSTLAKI
Procedure: as §1, §2

[4] = target: T4, Human OX40 ECD-AFH (human); assay: SPR, construct captured, monomeric ECD as analyte
T4 construct: ECD'; entry includes the C-terminal tags; also called OXF003; Human OX40 ECD-avi-flag-his
T4 chain: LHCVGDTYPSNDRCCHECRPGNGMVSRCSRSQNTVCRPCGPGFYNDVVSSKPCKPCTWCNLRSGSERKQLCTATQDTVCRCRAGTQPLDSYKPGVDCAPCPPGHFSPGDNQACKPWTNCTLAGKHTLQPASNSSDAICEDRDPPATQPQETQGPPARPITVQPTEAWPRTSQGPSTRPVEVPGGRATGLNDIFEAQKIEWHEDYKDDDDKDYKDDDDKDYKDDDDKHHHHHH
Procedure: (§3) Mouse anti-human IgG (GE, BR-1008-39) at 25 μg/ml in 10 mM sodium acetate pH 5.0 was immobilized at a density of ˜10,000 response units (RU) onto each flow cell of a CM5 research-grade sensor chip (GE) by standard amine coupling chemistry. Each binding protein at approximately 100 nM in HBS-EP+ with 0.2% BSA buffer was captured in a flow cell with the immobilized anti-human IgG at a flow rate of 10 μL/min for 20 seconds, leaving one flow cell surface unmodified as the reference. Using a single-cycle kinetics mode, five different concentrations of ECD were sequentially injected through each flow cell at 30 μL/min for 300 seconds followed by a 600 second dissociation period. Regeneration was achieved by injection of 3 M MgCl₂ at a flow rate of 30 μL/min for 30 seconds followed by HBS-EP+ with 0.2% BSA buffer stabilization for 1 min.
(§4) Sensorgrams obtained from kinetic SPR measurements were analyzed by the double subtraction method. The signal from the reference flow cell was subtracted from the analyte binding response obtained from flow cells with immobilized or captured ligands. Buffer reference responses were then averaged from multiple injections. The averaged buffer reference responses were then subtracted from analyte binding responses, and the final double-referenced data were analyzed with Biacore T200 Evaluation software (2.0, GE), globally fitting data to derive kinetic parameters. All sensorgrams were fitted using a simple one-to-one binding model.
(§5) Protein was produced by transient expression, purified by ProA chromatography and prep SEC.

[5] = target: T5, Human 4-1BB ECD-AFH (human); assay: SPR, construct captured, monomeric ECD as analyte
T5 construct: entry includes the tags; also called FOB003; HUMAN CD137 ECD-AVI-FLAG-HIS
Procedure: as §3, §4, §5

[6] = target: T6, Full-length Cyno 4-1BB (cynomolgus monkey, UniProt Q07011 24-255 (human entry)); assay: flow cytometry on Jurkat cells transfected with cynomolgus 4-1BB, goat anti-human Fc secondary antibody, MFI (Mean)
T6 construct: on Jurkat or CHO cells; also called FOB006; cynomolgus 4-1BB
T6 chain: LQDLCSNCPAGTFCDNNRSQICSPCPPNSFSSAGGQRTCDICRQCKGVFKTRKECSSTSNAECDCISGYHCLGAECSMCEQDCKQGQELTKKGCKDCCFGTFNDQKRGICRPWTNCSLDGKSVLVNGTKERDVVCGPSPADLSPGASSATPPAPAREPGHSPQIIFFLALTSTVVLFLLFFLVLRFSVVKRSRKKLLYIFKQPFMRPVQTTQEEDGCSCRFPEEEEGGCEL
Procedure: as §1, §2

[7] = target: T3, Full-length Human OX40; assay: cell-based or functional assay
[8] = target: T1, Full-length Human 4-1BB; assay: cell-based or functional assay
[9] = target: T6, Full-length Cyno 4-1BB; assay: flow cytometry on Jurkat cells transfected with cynomolgus 4-1BB, goat anti-human Fc secondary antibody, MFI (Mean)
Procedure: (§6) Serial dilutions of ADAPTIR™ constructs were incubated with transfected target cells and subsequently labelled with a fluorescently-conjugated goat-a-human Fc secondary antibody. […] (See Example 25.)

[10] = target: T3, Full-length Human OX40; assay: cell-based or functional assay; remark: listed apart in the source
[11] = target: T1, Full-length Human 4-1BB; assay: cell-based or functional assay; remark: listed apart in the source
[12] = target: T2, Full-length Cyno OX40; assay: flow cytometry on CHOK1SV cells transfected with cynomolgus OX40, goat anti-human Fc secondary antibody, MFI (Mean)
Procedure: as §6

[13] = target: T4, Human OX40 ECD-AFH; assay: SPR (Biacore 8K), construct captured, monovalent ECD
Procedure: as §3, §4
(§7) Using the BIACORE 8K SPR system, the affinity of these constructs for human and cyno 4-1BB, and human and cyno OX40 ECD, were determined using the methods described above. Monovalent binding affinity was determined by capturing the ADAPTIR™ bispecific construct on the chip and injecting monovalent ECD of the target at multiple concentrations.

[14] = target: T5, Human 4-1BB ECD-AFH; assay: as above
Procedure: as §3, §4, §7

[15] = target: T7, Cyno OX40-AFH (cynomolgus monkey); assay: as above
T7 construct: entry includes the tags; also called OXF005; cyno OX40 ECD
T7 chain: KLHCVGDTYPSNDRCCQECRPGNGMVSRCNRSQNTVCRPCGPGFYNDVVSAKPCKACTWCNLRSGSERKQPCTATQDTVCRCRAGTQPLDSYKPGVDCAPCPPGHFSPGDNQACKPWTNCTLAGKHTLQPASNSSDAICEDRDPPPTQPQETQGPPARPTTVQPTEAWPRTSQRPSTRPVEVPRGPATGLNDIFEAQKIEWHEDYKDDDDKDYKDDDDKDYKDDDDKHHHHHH
Procedure: as §3, §4, §7

[16] = target: T8, Cyno 4-1BB ECD-AFH (cynomolgus monkey); assay: as above
T8 construct: entry includes the tags; also called FOB004; Cyno CD137 ECD-avi-flag-his
T8 chain: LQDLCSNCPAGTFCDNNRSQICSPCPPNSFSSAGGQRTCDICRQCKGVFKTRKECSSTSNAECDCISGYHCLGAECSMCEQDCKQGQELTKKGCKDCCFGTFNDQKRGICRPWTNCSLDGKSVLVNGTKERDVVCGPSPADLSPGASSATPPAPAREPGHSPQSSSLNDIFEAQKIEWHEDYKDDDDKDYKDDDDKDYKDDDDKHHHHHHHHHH
Procedure: as §3, §4, §7

EC50 [1]: 0.25 nM | max MFI [1]: 4900 MFI | EC50 (read off the curve) [2]: ~0.8 nM | EC50 [3]: 0.36 nM | max MFI [3]: 10400 MFI | Kd [4]: 0.4 nM | koff [4]: 0.00028 s⁻¹ | kon [4]: 770000 M⁻¹ s⁻¹ | Kd [5]: 14 nM | koff [5]: 0.0046 s⁻¹ | kon [5]: 330000 M⁻¹ s⁻¹ | EC50 (read off the curve) [6]: ~0.3 nM | OX40 Reporter Assay EC50 [7]: 0.01 nM | OX40 Reporter Assay Max induction [7]: 1.93e+06 | 4-1BB Reporter Assay EC50 [8]: 0.017 nM | 4-1BB Reporter Assay Max induction [8]: 6.65e+06
B1: FXX01099 (bispecific antibody)
chain: EVQLVQSGAEVKKPGASVKVSCKASGYTFTSYWMNWVRQAPGQGLEWMGNIYPSGGSTNYAQKFQGRVTMTVDTSTSTVYMELSSLRSEDTAVYYCASFSDGYYAYAMDYWGQGTLVTVSSGGGGSGGGGSGGGGSGGGGSEIVMTQSPATLSLSPGERATLSCRASQSVSSYLNWYQQKPGQAPRLLIYYASRRHTGIPARFSGSGSGTDFTLTISSLQPEDFAVYYCQQGYNLPYTFGQGTKVEIKEPKSSDKTHTCPPCPAPPAAAPSVFLFPPKPKDTLMISRTPEVTCVVVDVSHEDPEVKFNWYVDGVEVHNAKTKPREEQYNSTYRVVSVLTVLHQDWLNGKEYKCAVSNKALPAPIEKTISKAKGQPREPQVYTLPPSRDELTKNQVSLTCLVKGFYPSDIAVEWESNGQPENNYKTTPPVLDSDGSFFLYSKLTVDKSRWQQGNVFSCSVMHEALHNHYTQKSLSLSPGGGGSPSSYVLTQPPSVSVAPGKTARITCGGNNIGSKSVNWFQQKPGQAPVLVVYDDSGRPSGIPERFSGSTSGNTATLTISRVEAGDEADYYCQVWDSSSDHVVFGGGTKLTVLGGGGSGGGGSGGGGSGGGGSQVQLVESGGGVVQPGRSLRLSCAASGFTLSYYGMHWVRQAPGKGLEWVAAISHDGSDKYYADSVKGRFTISRDNSKNTLYLQMNSLRAEDTAVYYCSNDQFDPWGQGTLVTVSSR
notes: ADAPTIR anti-4-1BB (HL) x anti-OX40 with Q17K; also called FX01099

EC50 (read off the curve) [9]: ~0.3 nM | OX40 Reporter Assay EC50 [10]: 0.012 nM | OX40 Reporter Assay Max induction [10]: 6.12e+06 | 4-1BB Reporter Assay EC50 [11]: 0.015 nM | 4-1BB Reporter Assay Max induction [11]: 1.38e+06 | EC50 (read off the curve) [12]: 1 to 2 nM | Kd [13]: 0.4 nM | koff [13]: 0.00039 s⁻¹ | kon [13]: 1e+06 M⁻¹ s⁻¹ | Kd [14]: 18 nM | koff [14]: 0.0046 s⁻¹ | kon [14]: 260000 M⁻¹ s⁻¹ | Kd [15]: 0.2 nM | koff [15]: 0.00023 s⁻¹ | kon [15]: 950000 M⁻¹ s⁻¹ | Kd [16]: 77 nM | koff [16]: 0.0075 s⁻¹ | kon [16]: 97000 M⁻¹ s⁻¹
B2: FXX01120 (bispecific antibody)
chain: B1 chain with I541V, E543S, T690R
notes: ADAPTIR anti-4-1BB x anti-OX40, pI variant

EC50 (read off the curve) [9]: ~0.3 nM | OX40 Reporter Assay EC50 [10]: 0.016 nM | OX40 Reporter Assay Max induction [10]: 6.19e+06 | 4-1BB Reporter Assay EC50 [11]: 0.016 nM | 4-1BB Reporter Assay Max induction [11]: 1.43e+06 | EC50 (read off the curve) [12]: 1 to 2 nM | Kd [13]: 0.1 nM | koff [13]: 0.00013 s⁻¹ | kon [13]: 1.2e+06 M⁻¹ s⁻¹ | Kd [14]: 9 nM | koff [14]: 0.0036 s⁻¹ | kon [14]: 390000 M⁻¹ s⁻¹ | Kd [15]: 0.2 nM | koff [15]: 0.00018 s⁻¹ | kon [15]: 1e+06 M⁻¹ s⁻¹ | Kd [16]: 30 nM | koff [16]: 0.013 s⁻¹ | kon [16]: 420000 M⁻¹ s⁻¹
B3: FXX01121 (bispecific antibody)
chain: B1 chain with E543K, T690R
notes: as for B2

Reference: patent US20220242962A1 (APTEVO RESEARCH AND DEVELOPMENT, published 2022)
